Data published in paper PMC9728973.

Columns and labels:
[1] = target: wild-type (WT) SARS-CoV-2 S-protein trimer (SARS-CoV-2) (UniProt P0DTC2)
[2] = target: prefusion stabilized SARS-CoV-2 S-protein trimer (SARS-CoV-2) (UniProt P0DTC2); test: ELISA
[3] = target: wild-type (WT) SARS-CoV-2 S-protein trimer (SARS-CoV-2) (UniProt P0DTC2); test: ELISA
Fc-Li-PD (human) = Fc-Li-PD (human) (UniProt Q9BYF1); test: BLI
PD-CLD-Fc (human) = PD-CLD-Fc (human) (UniProt Q9BYF1); test: BLI
PD-Fc (human) = PD-Fc (human) (UniProt Q9BYF1); test: BLI
PD-Li-Fc (human) = PD-Li-Fc (human) (UniProt Q9BYF1); test: BLI

PD-Fc (from UniProt Q9BYF1 18-615) (Fc fusion)
IC50 of neutralisation: infection of ACE2-transduced HEK293T cells by SARS-CoV-2 pseudotyped VSV particles (luciferase); S protein on the pseudovirus with cell-surface ACE2 [1]: 12 nM

PD-CLD-Fc (from UniProt Q9BYF1 18-740) (Fc fusion)
IC50 [2]: 10 nM | IC50 [3]: 0.1 nM

S1 monomer (BLI of Fig. 3B) (domain or fragment)
Kd (Fc-Li-PD (human)): 45 nM | Kd (PD-CLD-Fc (human)): 11 nM | ratio of the KD for S1 monomer to the KD for S-protein trimer (PD-Fc (human)): 3 fold | ratio of the KD for S1 monomer to the KD for S-protein trimer (PD-Li-Fc (human)): 3 fold

PD-Li-Fc (from UniProt Q9BYF1 18-615) (Fc fusion)
IC50 of neutralisation: infection of ACE2-transduced HEK293T cells by SARS-CoV-2 pseudotyped VSV particles (luciferase); S protein on the pseudovirus with cell-surface ACE2 [1]: 12 nM
